Laboratory results from patent US7807471.

Molecular target: recombinant murine IL-12 (R&D Systems) (murine) (UniProt P43431)
Experiment: cell-based or functional assay

## C17.8 (rat anti-mouse IL-12/IL-23p40, IgG2a) (antibody)
  in vitro neutralization of IL-12 (times (against the anti-p35 mAb)): 5
